{
  "source": "patent EP4442276A1",
  "about": "(INSTITUT PASTEUR, dated 2024)",
  "binders": {"B1": {"name": "Cv2.3132 IgG antibody (antibody, V domains shown)", "VH": "EVQLVESGGGLVKPGGSLRLSCAASGFTFSDYYMSWIRQAPGKGLEWVSYISSSGSVQYYADSVKGRFTISRDNAKNSLYLQMNSLRAEDTAVYYCARYYYDSSGYWKRLDYWGQGTLVTVSS", "VL": "not shown", "notes": "also called anti-HR2 antibody Cv2.3132"}},
  "target": "Spike of SARS-CoV-2 reference D614G strain (hCoV-19/France/GE1973/2020) (SARS-CoV-2, UniProt P0DTC2 14-1273)",
  "experiment": "cell-based or functional assay",
  "data": [
    {"binder": "B1", "values": [
      {"measurement": "IC50, S-Fuse neutralization assay", "result": 35.4, "unit": "µg/mL"}
    ]}
  ]
}
